Laboratory results taken from US20260242735A1 (UNIVERSIT T BASEL, published 2026).

B1: Refmab #4 (antibody, V domains shown)
VH: QVQLVQSGAEVKKPGESVKVSCKASGYTFTNYGMNWVKQAPGQGLEWMGWINTYTGEPTYADKFQGRVTMTTDTSTSTAYMEIRNLGGDDTAVYYCARWSWSDGYYVYFDYWGQGTSVTVSS
VL: DIVMTQSPDSLTVSLGERTTINCKSSQSVLDSSTNKNSLAWYQQKPGQPPKLLLSWASTRESGIPDRFSGSGSGTDFTLTIDSPQPEDSATYYCQQSAHFPITFGQGTRLEIK
notes: In the alanine scan antibodies were used as IgG or Fab
B2: Refmab #2 (antibody, V domains shown)
VH: QVQLVQSGAEVKKPGSSVKVSCKASGGTFSDYAISWVRQAPGQGLEWMGRIIPILGVADYAQKFQGRVTITADKSTRTAYMELSSLRSEDTAVYYCARNWADAFDIWGQGTMVTVSS
VL: DIQLTQSPSSLSASVGDRVTITCRASQGISSVLAWYQQKPGKAPKLLIYDASSLESGVPSRFSGSGSGTDFTLTISSLQPEDFATYYCQQFDSSITFGQGTKLEIK
notes: as for B1
B3: Refmab #2 (antibody, V domains shown)
VH: QVQLVQSGAEVKKPGSSVKVSCKASGGTFSDYAISWVRQAPGQGLEWMGRIIPILGVADYAQKFQGRVTITADKSTRTAYMELSSLRSEDTAVYYCARNWADAFDIWGQGTMVTVSS
VL: DIQLTQSPSSLSASVGDRVTITCRASQGISSVLAWYQQKPGKAPKLLIYDASSLESGVPSRFSGSGSGTDFTLTISSLQPEDFATYYCQQFDSSITFGQGTKLEIK
notes: The alanine scan used IgG or Fab
B4: Refmab #3 (antibody, V domains shown)
VH: QVQLVQSGAEVKKPGSSVKVSCKASGYTFTDYNMHWVRQAPGQGLEWIGYIYPYNGGTGYNQKFKSKATITADESTNTAYMELSSLRSEDTAVYYCARGRPAMDYWGQGTLVTVSS
VL: DIQMTQSPSSLSASVGDRVTITCRASESVDNYGISFMNWFQQKPGKAPKLLIYAASNQGSGVPSRFSGSGSGTDFTLTISSLQPDDFATYYCQQSKEVPWTFGQGTKVEIK
notes: as for B1
B5: Refmab #3 (antibody, V domains shown)
VH: QVQLVQSGAEVKKPGSSVKVSCKASGYTFTDYNMHWVRQAPGQGLEWIGYIYPYNGGTGYNQKFKSKATITADESTNTAYMELSSLRSEDTAVYYCARGRPAMDYWGQGTLVTVSS
VL: DIQMTQSPSSLSASVGDRVTITCRASESVDNYGISFMNWFQQKPGKAPKLLIYAASNQGSGVPSRFSGSGSGTDFTLTISSLQPDDFATYYCQQSKEVPWTFGQGTKVEIK
notes: as for B3
B6: Refmab #1 (antibody, V domains shown)
VH: EVQLVQSGAEVKKPGSSVKVSCKASGYTITDSNIHWVRQAPGQSLEWIGYIYPYNGGTDYNQKFKNRATLTVDNPTNTAYMELSSLRSEDTAFYYCVNGNPWLAYWGQGTLVTVSS
VL: DIQLTQSPSTLSASVGDRVTITCRASESLDNYGIRFLTWFQQKPGKAPKLLMYAASNQGSGVPSRFSGSGSGTEFTLTISSLQPDDFATYYCQQTKEVPWSFGQGTKVEVK
notes: In the alanine scan antibodies were used as IgG or Fab; also called hP67.6
B7: Refmab #1 (antibody, V domains shown)
VH: EVQLVQSGAEVKKPGSSVKVSCKASGYTITDSNIHWVRQAPGQSLEWIGYIYPYNGGTDYNQKFKNRATLTVDNPTNTAYMELSSLRSEDTAFYYCVNGNPWLAYWGQGTLVTVSS
VL: DIQLTQSPSTLSASVGDRVTITCRASESLDNYGIRFLTWFQQKPGKAPKLLMYAASNQGSGVPSRFSGSGSGTEFTLTISSLQPDDFATYYCQQTKEVPWSFGQGTKVEVK
notes: The alanine scan used IgG or Fab; also called hP67.6

Tests used:
Experiment in all cases: alanine scan, flow cytometry, HEK293-T;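 further: antibody binding to each alanine-substituted CD33 mutant expressed transiently in HEK293-T, read as fluorescence minus background, mean of duplicates, relative to wild-type CD33 set as 100%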
[1] = target: human CD33 P201A (human, UniProt P20138 18-364)
Chain of human CD33 P201A (P20138 18-364 P201A limits assumed): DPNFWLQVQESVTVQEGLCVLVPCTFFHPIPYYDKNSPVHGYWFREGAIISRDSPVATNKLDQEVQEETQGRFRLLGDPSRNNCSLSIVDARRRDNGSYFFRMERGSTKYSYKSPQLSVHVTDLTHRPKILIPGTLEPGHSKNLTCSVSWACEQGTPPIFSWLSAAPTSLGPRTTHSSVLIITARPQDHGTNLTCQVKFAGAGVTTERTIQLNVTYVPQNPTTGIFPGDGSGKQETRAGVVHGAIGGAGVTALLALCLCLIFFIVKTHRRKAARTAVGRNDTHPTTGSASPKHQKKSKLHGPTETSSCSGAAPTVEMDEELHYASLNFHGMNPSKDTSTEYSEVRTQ

[2] = target: human CD33 T173A (human, UniProt P20138 18-364)
Chain of human CD33 T173A (P20138 18-364 T173A limits assumed): as the sequence (P20138 18-364 P201A limits assumed) above, with T156A, A184P counted along it

[3] = target: human CD33 P184A (human, UniProt P20138 18-364)
Chain of human CD33 P184A (P20138 18-364 P184A limits assumed): as the sequence (P20138 18-364 P201A limits assumed) above, with P167A, A184P counted along it

[4] = target: human CD33 V214A (human, UniProt P20138 18-364)
Chain of human CD33 V214A (P20138 18-364 V214A limits assumed): as the sequence (P20138 18-364 P201A limits assumed) above, with A184P, V197A counted along it

[5] = target: human CD33 T232A (human, UniProt P20138 18-364)
Chain of human CD33 T232A (P20138 18-364 T232A limits assumed): as the sequence (P20138 18-364 P201A limits assumed) above, with A184P, T215A counted along it

[6] = target: human CD33 R202A (human, UniProt P20138 18-364)
Chain of human CD33 R202A (P20138 18-364 R202A limits assumed): as the sequence (P20138 18-364 P201A limits assumed) above, with A184P, R185A counted along it

[7] = target: human CD33 K215A (human, UniProt P20138 18-364)
Chain of human CD33 K215A (P20138 18-364 K215A limits assumed): as the sequence (P20138 18-364 P201A limits assumed) above, with A184P, K198A counted along it

[8] = target: human CD33 G220A (human, UniProt P20138 18-364)
Chain of human CD33 G220A (P20138 18-364 G220A limits assumed): as the sequence (P20138 18-364 P201A limits assumed) above, with A184P, G203A counted along it

[9] = target: human CD33 R190A (human, UniProt P20138 18-364)
Chain of human CD33 R190A (P20138 18-364 R190A limits assumed): as the sequence (P20138 18-364 P201A limits assumed) above, with R173A, A184P counted along it

[10] = target: human CD33 S178A (human, UniProt P20138 18-364)
Chain of human CD33 S178A (P20138 18-364 S178A limits assumed): as the sequence (P20138 18-364 P201A limits assumed) above, with S161A, A184P counted along it

[11] = target: human CD33 L180A (human, UniProt P20138 18-364)
Chain of human CD33 L180A (P20138 18-364 L180A limits assumed): as the sequence (P20138 18-364 P201A limits assumed) above, with L163A, A184P counted along it

[12] = target: human CD33 A217S (human, UniProt P20138 18-364)
Chain of human CD33 A217S (P20138 18-364 A217S limits assumed): as the sequence (P20138 18-364 P201A limits assumed) above, with A184P, A200S counted along it

[13] = target: human CD33 N230A (human, UniProt P20138 18-364)
Chain of human CD33 N230A (P20138 18-364 N230A limits assumed): as the sequence (P20138 18-364 P201A limits assumed) above, with A184P, N213A counted along it

[14] = target: human CD33 V221A (human, UniProt P20138 18-364)
Chain of human CD33 V221A (P20138 18-364 V221A limits assumed): as the sequence (P20138 18-364 P201A limits assumed) above, with A184P, V204A counted along it

[15] = target: human CD33 D205A (human, UniProt P20138 18-364)
Chain of human CD33 D205A (P20138 18-364 D205A limits assumed): as the sequence (P20138 18-364 P201A limits assumed) above, with A184P, D188A counted along it

[16] = target: human CD33 T239A (human, UniProt P20138 18-364)
Chain of human CD33 T239A (P20138 18-364 T239A limits assumed): as the sequence (P20138 18-364 P201A limits assumed) above, with A184P, T222A counted along it

[17] = target: human CD33 K309A (human, UniProt P20138 18-364)
Chain of human CD33 K309A (P20138 18-364 K309A limits assumed): as the sequence (P20138 18-364 P201A limits assumed) above, with A184P, K292A counted along it

[18] = target: human CD33 L271A (human, UniProt P20138 18-364)
Chain of human CD33 L271A (P20138 18-364 L271A limits assumed): as the sequence (P20138 18-364 P201A limits assumed) above, with A184P, L254A counted along it

[19] = target: human CD33 T268A (human, UniProt P20138 18-364)
Chain of human CD33 T268A (P20138 18-364 T268A limits assumed): as the sequence (P20138 18-364 P201A limits assumed) above, with A184P, T251A counted along it

[20] = target: human CD33 V282A (human, UniProt P20138 18-364)
Chain of human CD33 V282A (P20138 18-364 V282A limits assumed): as the sequence (P20138 18-364 P201A limits assumed) above, with A184P, V265A counted along it

[21] = target: human CD33 G295A (human, UniProt P20138 18-364)
Chain of human CD33 G295A (P20138 18-364 G295A limits assumed): as the sequence (P20138 18-364 P201A limits assumed) above, with A184P, G278A counted along it

[22] = target: human CD33 Q251A (human, UniProt P20138 18-364)
Chain of human CD33 Q251A (P20138 18-364 Q251A limits assumed): as the sequence (P20138 18-364 P201A limits assumed) above, with A184P, Q234A counted along it

[23] = target: human CD33 R286A (human, UniProt P20138 18-364)
Chain of human CD33 R286A (P20138 18-364 R286A limits assumed): as the sequence (P20138 18-364 P201A limits assumed) above, with A184P, R269A counted along it

[24] = target: human CD33 I262A (human, UniProt P20138 18-364)
Chain of human CD33 I262A (P20138 18-364 I262A limits assumed): as the sequence (P20138 18-364 P201A limits assumed) above, with A184P, I245A counted along it

[25] = target: human CD33 V294A (human, UniProt P20138 18-364)
Chain of human CD33 V294A (P20138 18-364 V294A limits assumed): as the sequence (P20138 18-364 P201A limits assumed) above, with A184P, V277A counted along it

[26] = target: human CD33 G266A (human, UniProt P20138 18-364)
Chain of human CD33 G266A (P20138 18-364 G266A limits assumed): as the sequence (P20138 18-364 P201A limits assumed) above, with A184P, G249A counted along it

[27] = target: human CD33 S305A (human, UniProt P20138 18-364)
Chain of human CD33 S305A (P20138 18-364 S305A limits assumed): as the sequence (P20138 18-364 P201A limits assumed) above, with A184P, S288A counted along it

[28] = target: human CD33 R296A (human, UniProt P20138 18-364)
Chain of human CD33 R296A (P20138 18-364 R296A limits assumed): as the sequence (P20138 18-364 P201A limits assumed) above, with A184P, R279A counted along it

[29] = target: human CD33 G304A (human, UniProt P20138 18-364)
Chain of human CD33 G304A (P20138 18-364 G304A limits assumed): as the sequence (P20138 18-364 P201A limits assumed) above, with A184P, G287A counted along it

[30] = target: human CD33 L316A (human, UniProt P20138 18-364)
Chain of human CD33 L316A (P20138 18-364 L316A limits assumed): as the sequence (P20138 18-364 P201A limits assumed) above, with A184P, L299A counted along it

[31] = target: human CD33 A306S (human, UniProt P20138 18-364)
Chain of human CD33 A306S (P20138 18-364 A306S limits assumed): as the sequence (P20138 18-364 P201A limits assumed) above, with A184P, A289S counted along it

[32] = target: human CD33 A293S (human, UniProt P20138 18-364)
Chain of human CD33 A293S (P20138 18-364 A293S limits assumed): as the sequence (P20138 18-364 P201A limits assumed) above, with A184P, A276S counted along it

| Binder | Mean % WT Binding [1] | Mean % WT Binding [2] | Mean % WT Binding [3] | Mean % WT Binding [4] | Mean % WT Binding [5] | Mean % WT Binding [6] | Mean % WT Binding [7] | Mean % WT Binding [8] | Mean % WT Binding [9] | Mean % WT Binding [10] | Mean % WT Binding [11] | Mean % WT Binding [12] | Mean % WT Binding [13] | Mean % WT Binding [14] | Mean % WT Binding [15] | Mean % WT Binding [16] | Mean % WT Binding [17] | Mean % WT Binding [18] | Mean % WT Binding [19] | Mean % WT Binding [20] | also measured |
| --- | --- | --- | --- | --- | --- | --- | --- | --- | --- | --- | --- | --- | --- | --- | --- | --- | --- | --- | --- | --- | --- |
| B1 | 103% | 119% | 79.4% | 101% | 57.4% | 88.7% | 96.7% | 115% | 109% | 101% | 101% | 61.1% | 63.5% | 104% | 0.1% | 102% |  |  |  |  |  |
| B2 | 110% | 134% | 111% | 118% | 84.8% | 112% | 98.4% | 132% | 114% | 113% | 118% | 109% | 96.4% | 92.3% | 2.8% | 111% |  |  |  |  |  |
| B3 |  |  |  |  |  |  |  |  |  |  |  |  |  |  |  |  | 111 % WT binding | 113 % WT binding | 107 % WT binding | 112 % WT binding | Mean % WT Binding [21]: 110 % WT binding; Mean % WT Binding [22]: 117 % WT binding; Mean % WT Binding [23]: 117 % WT binding; Mean % WT Binding [24]: 115 % WT binding; Mean % WT Binding [25]: 105 % WT binding; Mean % WT Binding [26]: 116 % WT binding; Mean % WT Binding [27]: 107 % WT binding; Mean % WT Binding [28]: 111 % WT binding; Mean % WT Binding [29]: 111 % WT binding; Mean % WT Binding [30]: 104 % WT binding; Mean % WT Binding [31]: 85.1 % WT binding; Mean % WT Binding [32]: 114 % WT binding |
| B4 | 90.9% | 97% | 103% | 102% | 127% | 128% | 79.8% | 114% | 124% | 112% | 102% | 148% | 109% | 89% | 8.1% | 105% |  |  |  |  |  |
| B5 |  |  |  |  |  |  |  |  |  |  |  |  |  |  |  |  | 92 % WT binding | 135 % WT binding | 91.5 % WT binding | 73.2 % WT binding | Mean % WT Binding [21]: 95.8 % WT binding; Mean % WT Binding [22]: 93.3 % WT binding; Mean % WT Binding [23]: 92.4 % WT binding; Mean % WT Binding [24]: 130 % WT binding; Mean % WT Binding [25]: 95.8 % WT binding; Mean % WT Binding [26]: 97.8 % WT binding; Mean % WT Binding [27]: 103 % WT binding; Mean % WT Binding [28]: 92.9 % WT binding; Mean % WT Binding [29]: 121 % WT binding; Mean % WT Binding [30]: 90.4 % WT binding; Mean % WT Binding [31]: 111 % WT binding; Mean % WT Binding [32]: 72.9 % WT binding |
| B6 | 85.6% | 106% | 82.9% | 80.5% | 76.6% | 86.7% | 84.5% | 104% | 96.6% | 94% | 91.3% | 80.2% | 83.6% | 91.9% | 1.6% | 79.7% |  |  |  |  |  |
| B7 |  |  |  |  |  |  |  |  |  |  |  |  |  |  |  |  | 92.7 % WT binding | 100 % WT binding | 102 % WT binding | 109 % WT binding | Mean % WT Binding [21]: 92.7 % WT binding; Mean % WT Binding [22]: 98.8 % WT binding; Mean % WT Binding [23]: 96.3 % WT binding; Mean % WT Binding [24]: 89.7 % WT binding; Mean % WT Binding [25]: 91.7 % WT binding; Mean % WT Binding [26]: 100 % WT binding; Mean % WT Binding [27]: 86.4 % WT binding; Mean % WT Binding [28]: 101 % WT binding; Mean % WT Binding [29]: 104 % WT binding; Mean % WT Binding [30]: 84.6 % WT binding; Mean % WT Binding [31]: 102 % WT binding; Mean % WT Binding [32]: 90.6 % WT binding |
